According to US7005283B2, “Cytochrome P450 oxygenases and their uses” (Washington State University Research Foundation, priority 1999, dated 2006):

B1: clone F42: Taxus cuspidata cytochrome P450 oxygenase, full-length clone, SEQ ID NO: 45 (nt) / 58 (aa) (protein, listed as Taxus cuspidata)
chain: MDSFSFLKSMEAKFGQVIHRDQSSSTALLSLAFTAAVAIFLVLLFRFKSRPSTNFPPGNFGFPFIGETIQFLRALRSESPHMFFDERLKKFGRVFKTSLTGHPTAVFCGPAGNRFIYSNEHKLVQSSGPNSFVKLVGQQSIVTKTGEEHRIFLGVLNEFLGPHALQSYTPKMSSKIQENINKHWKGKDEVNMLPSIRQLVFSISSSLFFDINDEDQQEQLKTLLETILVGTLSVPLDIPGSNFRKALRARSKLDEILSRLIESRRKDMRSGIASTSKNLLSVLLAFKDERGNPLTDTEILDNFSFMLHASYDTTVSPTVCIFKLLSANPECYEKVVQEQLGILGNKKDGEEMCWNDLKAMKYTWQAAQETMRLFPPAFGSFRKVIADIHHDGYIIPKGWKAMVTNYSTSRKEEYFDEPDNFKPSRFGDGKYVAPYTFLPFGAGIRICPGWEFAKLEMLLFIHHFVKNFSGYLPLDTKEKISGDPFPPLPKNGFPIKLFPRT
B2: clone F56: Taxus cuspidata cytochrome P450 oxygenase, full-length clone, SEQ ID NO: 49 (nt) / 62 (aa) (protein, listed as Taxus cuspidata)
chain: MDTLIQIQSSPDFLSFTLTAFLGVVVLLIFRYKHRSALKLPPGNLGLPFIGETITFASQPPQKFLNERGKKFGPVFKTSLIGHPTVVLCGSSGNRFLLSNEEKLVRMSLPNSYMKLLGQDSLLGKTGQEHRIVRTALGRFLGPQELQNHVAKMSSDIQHHINQKWKGNDEVKVLPLIRNLVFSIATSLFFGINDEHQQERLHLLLETIVMGAVCIPLAFPGSGFRKALQARSELDGILISLMKIRRSDLRSGAASSNQDLLSVLLTFKDERGNPLTDKEILDNFSVLLHGLYDTTISPLTLIFKLMSSNTECYENVVQEQLEILSHREKGEEIGWKDLKSMKYTWQAIQETLRMFPPVYGNFRKALTDIHYDGYTIPKGWRVLCSPFTTHSNEEYFNEPDEFRPSRFEGQGKNVPSYTFIPFGGGLRICPGWEFAKTEMLLFIHYFVKTFSSYVPVDPNEKISADPLASFPVNGFSVKLFPRS
B3: clone F19: Taxus cuspidata cytochrome P450 oxygenase, full-length clone, SEQ ID NO: 50 (nt) / 63 (aa) (protein, listed as Taxus cuspidata)
chain: MDAFNILKGPAAKLNGVVQLGSYTDRILSITVVAFITILLLLMLRWKSQSSVKLPPGNFGFPLIGETLQLLRAFRSNTTQQFFDERQKKFGCVFKTSLVGERTVVLCGPSGNRLVLANQNKVVESSWPSAFIKLIGEDSIANTNGEKHRILRAALLRYLGPGSLQNYVGKMRSEIEHHINEKWKGKDEVKVLDLVRKNVFSVATALFFGVNDEERKRIRPPSILRKLHFAGSFSIPLDFPGTSYRRALEARLKLDKILSSLIERRRSDLRSGLASGNEDLVSVLLTFKDEGGNPLTDKEILDNFSGLLHASYDTTTSALTLTFKLMSSSAECYDKVVQEQLRIVSNKKEGEEISLKDLKDMKYTWQVVQETLRMFPPLFGSFRKTIADIQYDGYTIPKGWKVLWATYTTHGRDEYFSEPQKFRPSRFEEGGKHVAPYTFLPFEGGERTCPGYEFSKTHILLFIHQFVKTFTGYIPLDPNESISANPLPPLPANGFPVKLFQRS
B4: clone F55: Taxus cuspidata cytochrome P450 oxygenase, full-length clone, SEQ ID NO: 52 (nt) / 65 (aa) (protein, listed as Taxus cuspidata)
chain: METKFGQLMQLEFLPFILTPILGALVLLHLFRHRNRSSVKLPPGKLGFPVIGETIQFLRALRSQTPQKFFDDRVQKFGGVFKTSLIGNPLVVMCGPAGNRLVLSNEDKLVQLEAPNSLMKLMGQDSLLAKRQEDHRTLRAALARFLGPQALXNYMTKISSRTEHHMNEKWKGKDEVRTLPLIRELIFSNASSLFFDINDEHQQERLHHLLEAVVVGSMSIPLDFPGTRLRKALQARSKLDEILSSLIKSRRKDLVSGIASDDQDLLSVLLTFKDERGNPLTDKEILDNFSLLLHASYDTTVSPMVLTLKLLSSNPECYEKVVQEQLGIVANKRIGEEISWKDLKAMKYTWQVVQETLRMFPPLFGSFRKAMVDIDYDGYTIPKGWMILWTTYGTHLREEYFNEPLKFRPSRFEEDGRVTPYTFIPFGGGARTCPGWEFSKTEILLFIHHFVRTFSSYLPVDSNEKISADPFPPLPANGFSIKLSADPFPPLPANGFSIKLFPRSQSN
modifications: not fully specified; (1)..(507) “Xaa” equals any peptide
B5: clone F23: Taxus cuspidata cytochrome P450 oxygenase, full-length clone, SEQ ID NO: 84 (nt) / 90 (aa) (protein, listed as Taxus cuspidata)
chain: MELWNMFLPWISIATATSLTVGMASAFAIIYAPLLLSFLRLKTARRNMPPIPPGSMGMPFWGESLGYLGSWNNQSNPDVWYDTRKAKHGKIFTTHILGSPTVVMLGPDANRFILINENKLFLNSWPKSLNALIGKHALITSQGAEHKRMRRIIHSVLGPRNPETSVGRFEGLVLHHLDSDWHGGQIIQAYRQVKDMALCLAADFFMGLKPGKELETFRRHFSDFSAGLLSHPLDLPWTVFGKAKRARAAMVTQIFSQIRLHRTSMHKSGEEGGNFLDMVLGSQEKGGDLRLSEEEIADNLMGLLTGGQDTTASALATILKHLSLSPHLLQRLRKECEKLRDNKEAGGPLTWSEIKSVGYLHNVISEGLRMVAPINGGFKKAKVDVVYGGYTIPKGWKVHYSVRQTNNKEEYFPSPERFDPDRFNERHEPFSFIPFGQGNRMCPGNEFARLEMELFLYHLVLRYDWELMEADERTNMYFIPHPVHSLPLLLKHVPPT
B6: clone F10: Taxus cuspidata cytochrome P450, outlying full-length clone, SEQ ID NO: 55 (nt) / 68 (aa) (protein, listed as Taxus cuspidata)
chain: MAFEAATVILFTLAALLLVVIQRRRIRRHKLQGKVKAPQPPSWPVIGNLHLLTQKVPIHRILSSLSESYGPIMHLQLGLRPALVIASSDLAKECFTTNDKAFASRPRLSAGKHVGYDYKIFSMAPYGSYWRNLRKMCTIQILSATRIDSFRHIRVEEVSALIRSLFDSCQREDTPVNMKARLSDLTFSIILRMVANKKLSGPVYSEEYEEADHFNQMIKQSVFLLGAFEVGDFLPFLKWLDLQGFIAAMKKLQQKRDVFMQKLVIDHREKRGRVDANAQDLIDVLISATDNHEIQSDSNDDVVKATALTMLNAGTDTSSVTIEWALAALMQHPHILSKAQQELDTHIGRSRLLEEADLHELKYLQAIVKETLRLYPAAPLLVPHEAIEDCTVGGYHVSAGTRLIVNAWAIHRDPAVWERPTVFDPERFLKSGKEVDVKGREFELIPFGSGRRMCPGMSLALSVVTYTLGRLLQSFEWSVPEGMIIDMTEGLGLTMPKAVPLETIIKPRLPFHLY

Experiment: not given
Assay type: binding, Saccharomyces cerevisiae
Details: not given
From the text: CO-sensor of the 19 full-length cytochrome P450 clones from Taxus, thus far obtained, ten have yielded detectable CO-difference spectra (Table 2). […] These alternative expression systems for cytochrome P450 genes include the yeast Pichia pastoris, for which expression vectors and hosts are commercially available (Invitrogen, Carlsbad, Calif.), as well as established E. coli and baculovirus-insect cell systems for which general expression procedures have been described (Barnes, Methods Enzymol. 272:1–14, 1996;Gonzalez et al., Methods Enzymol. 206:93–99, 1991;Lee et al., Methods Enzymol. 272:86–98, 1996;and Lupien et al., Arch. Biochem. Biophys. 368:181–192, 1999).
Appropriate restriction sites were introduced by standard PCR methods (Innis et al., PCR Protocols: A Guide to Methods and Applications, Academic Press, San Diego, Calif., 1990) immediately upstream of the ATG start codon and downstream of the stop codon of all full-length cytochrome P450 clones. These modified amplicons were gel-purified, digested with the corresponding restriction enzymes, and then ligated into the expression vector pYeDP60. The vector/insert junctions were sequenced to ensure that no errors had been introduced by the PCR construction. Verified clones were transformed into yeast using the lithium acetate method (Ito et al., J. Bacteriol. 153:163–168, 1983). Isolated transformants were grown to stationary phase in SGI medium (Pompon et al., Methods Enzymol. 272:51–64, 1996), and used as inocula for a large-scale expression culture grown in YPL medium (Pompon et al., Methods Enzymol. 272:51–64, 1996). Approximately 24 hours after induction of cytochrome P450 expression with galactose (to 10% final concentration), a portion of the yeast cell culture was harvested by centrifugation. One-half of the culture was treated with carbon monoxide, and the cytochrome P450 CO-difference spectrum was recorded directly (using untreated cells as a control) by spectrophotometry (Omura and Sato, J. Biol. Chem. 239:2370–2378, 1964).

Row | Molecule | CO diff. spec.
1 | B1 | −
2 | B2 | −
3 | B3 | −
4 | B4 | −
5 | B5 | −
6 | B6 | +

Experiment: In vivo assay of yeast cells expressing recombinant oxygenases, radio-HPLC, substrate taxadiene
Assay type: cell-based, Saccharomyces cerevisiae
Details: assayed with Taxadiene; graded symbols, key not given
From the text: (§1) Transformed yeast cells that fimctionally express a recombinant cytochrome P450 gene from Taxus (by CO-difference spectrum) can be tested in vivo for their ability to oxygenate (hydroxylate or epoxidize) taxoid substrates fed exogenously to the cells, thereby eliminating the need for microsome isolation for preliminary in vitro assays.
(§2) Accordingly, several clones of the available full-length clones were expressed in induced yeast host cells.
(§3) Isolated transformants for each full-length cytochrome P450 clone shown to express a functional enzyme by CO-difference spectrum (ten clones) were grown to stationary phase in 2 mL SGI medium at 30° C. and used to inoculate a 10-mL expression culture (in YPL medium). Approximately 8 hours after induction, cells were harvested by centrifugation (10 minutes at 1500 rpm), and the pellet was resuspended in 2 mL of fresh YPL medium.
(§4) To eliminate additional complication and uncertainty associated with microsome isolations for in vitro assays, 10^6 dpm of [20-^3H3]taxa-4(5),11(12)-diene (16 Ci/mol) or [20-^3H2]taxa-4(20),11(12)-diene-5-α-ol (4.0 Ci/mol), or other taxoid substrate were added directly to the cell suspension to assay conversion in vivo. After 12 hours of incubation at 30° C. with agitation (250 rpm), the mixture was treated for 15 minutes in a sonication bath and extracted 3 times with 2 mL diethyl ether to insure isolation of the biosynthetic products. These ether extracts, containing residual substrate and derived product(s), were concentrated to dryness, resuspended in 200 μL of CH3CN, and filtered. These samples were analyzed by radio-HPLC (Hefner et al., Chemistry and Biology 3:479–489, 1996) using a 4.6 mm i.d.×250 mm column of Econosil C18, 5 μ (Alltech, Deerfield, Ill.) with a gradient of CH3CN in H2O from 0% to 85% (10 minutes at 1 mL/minute), then to 100% CH3CN over 40 minutes.

Row | Molecule | product identified HPLC peak
7 | B1 | No
8 | B2 | No
9 | B3 | No
10 | B4 | No
11 | B5 | No
12 | B6 | No

Experiment: In vivo assay of yeast cells expressing recombinant oxygenases, radio-HPLC, substrate taxadien-5α-ol
Assay type: cell-based, Saccharomyces cerevisiae
Details: assayed with Taxadien5αol; graded symbols, key not given
From the text: as §1, §2, §3, §4

Row | Molecule | product identified HPLC peak
13 | B1 | No
14 | B2 | No
15 | B3 | No
16 | B4 | No
17 | B5 | No
18 | B6 | No
